Data set [1] has as its target PD-1 (programmed cell death protein 1) (Homo sapiens, UniProt Q15116 Q15116:25-170). The data set can be described thus: competition; inhibition of PD-1/PD-L1 interaction. The settings on record: tags: His tag, immobilized on Ni-NTA plate. The protocol:
Each of the above aptamer nucleotide sequences were tested for PD-1 antagonistic activity using an in vitro competition assay. Briefly, 200 ng of histidine-tag labeled PD-1 receptors (His tag-PD1 protein) were coated on nickel-nitrilotriacetic acid (Ni-NTA) coated plates and treated with Fc-labeled PDL-1 protein/aptamer mixture. Protein G-HRP and ECL substrate was used to determine the binding signal. The PD-1 antagonistic antibody J116 was used as a positive control and the negative control was performed in the absence of aptamer or antibody. A schematic representation of the competition assay is shown in FIG. 8, panels A and B. Each of the aptamer sequences (Cores 1-6 and Core 1(optimized)) were tested in the in vitro competition assay at a concentration of 200 nM. In the competition assay, each aptamer nucleotide sequence inhibited the interaction between PD-1 and PDL-1 as shown in FIG. 6.

Data set [2] deals with PD-1 (programmed cell death protein 1) extracellular domain (UniProt Q15116 Q15116:25-170). In words: filter; total binding assay.
In data set [3] the target is T1, PD-1 (programmed cell death protein 1) (Mus musculus, UniProt Q02242 Q02242:25-169). The data set can be described thus: ELONA; +++ class. The settings on record: tags: His tag, immobilized on Ni-NTA plate; label: 5'-biotin. The protocol: (§1) Briefly, 200 ng of histidine-tag labeled PD-1 receptors (His tag-PD1 protein) were coated on nickel-nitrilotriacetic acid (Ni-NTA) coated plates and treated with aptamers conjugated at their 5′ end to biotin (Biotin-PD-1 aptamer). Binding of the aptamers to PD-1 was detected using streptavidin-HRP and ECL substrate. The aptamers tested were:
(§2) The above aptamers were tested for binding to human, mouse, rat, rhesus monkey and/or canine PD-1 using the in vitro PD-1 binding assay depicted in FIG. 9.

The target in data set [4] is T1, PD-1 (programmed cell death protein 1). In words: ELONA; ++ class. The settings on record: tags: His tag, immobilized on Ni-NTA plate; label: 5'-biotin. As for the experimental part:
as §1, §2

T1 sequence (Q02242 25-169, one chain of several): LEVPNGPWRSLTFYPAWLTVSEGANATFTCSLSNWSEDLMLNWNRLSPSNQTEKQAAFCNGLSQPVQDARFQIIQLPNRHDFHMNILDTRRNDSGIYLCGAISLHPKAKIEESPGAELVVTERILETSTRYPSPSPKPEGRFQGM
Chain of PD-1 (programmed cell death protein 1) extracellular domain (Q15116 25-170, one chain of several): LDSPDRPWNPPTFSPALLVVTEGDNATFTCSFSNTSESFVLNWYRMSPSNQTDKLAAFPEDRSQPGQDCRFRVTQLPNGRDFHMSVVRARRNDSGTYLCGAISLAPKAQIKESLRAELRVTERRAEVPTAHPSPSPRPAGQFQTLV
Chain of PD-1 (programmed cell death protein 1) (Homo sapiens, UniProt Q15116 Q15116:25-170) (Q15116 25-170, one chain of several): as above

In general, IC50 refers to the concentration that gives 50% inhibition. Read a low IC50 as greater potency. Turning to CCATCTCCC (ssDNA) [Core 1], the IC50 in data set [1] came out at 31.2 nM.

B1: PD7 (ssDNA)
DNA: TCCCTACGGCGCTAACCTTCCATCTCCCATGCTTAGTCAAACATACGCCACCGTGCTACAAC
A word on the Kd: it is a measure of binding affinity in units of concentration. A higher Kd goes with a looser complex. Regarding B1, the Kd in data set [2] worked out at 9.7 nM.

B2: PD7 (5'-biotin) (ssDNA)
DNA: B1 DNA
Molecule B2 yielded a Kd in data set [3] below 20 nM.
The molecule CCATCTCCC (ssDNA) [Core 1 (5'-biotin)] registered a Kd in data set [4] of 44.7 nM. This lies in the double-digit nanomolar range.

B3: PD100 (5'-biotin) (ssDNA)
DNA: TCCCTACGGCGCTAACCCTCCCCTAGTATATATTGTCCTCGTCTATGCCACCGTGCTACAAC
As for B3, the Kd in data set [4] was 44.7 nM.
For TATATTGTCC (ssDNA) [Core 2 (5'-biotin)], the Kd in data set [3] is below 20 nM.

B4: PD16 (ssDNA)
DNA: TCCCTACGGCGCTAACTGATCACAAGAATAACTATCCCATCTCCCTGCCACCGTGCTACAAC
With B4, the Kd in data set [2] came out at 2.1 nM.

The record behind these values is patent US20170218369, “AN ANTAGONISTIC PD-1 APTAMER AND ITS APPLICATIONS IN CANCER THERAPY RELATED APPLICATIONS” (Academia Sinica, published 2017).
